# Assay results reported in PMC7367873, “Dissecting the sequence determinants for dephosphorylation by the catalytic subunits of phosphatases PP1 and PP2A” (Nature Communications, 2020).
# What was measured:
# [1] = tested on: GFP-14-3-3β; assay: GFP-14-3-3β co-IP with LC-MS/MS, untreated GFP-14-3-3β versus GFP control (14-3-3 interactome); type: binding, human; settings: label-free quantification, 3 replicates each
# [2] = tested on: GFP-14-3-3β and its binding proteins; assay: GFP-14-3-3β co-IP with LC-MS/MS label-free quantification, untreated versus PP1c-treated; design: species or system human; settings: label-free quantification, 3 replicates each
# [3] = GFP-14-3-3β co-IP LC-MS/MS, untreated vs GFP, student's t-test
# [4] = GFP-14-3-3β co-IP LC-MS/MS, PP1 vs untreated, student's t-test
"Difference (log2), PP1 vs untreated ([2]; log2 difference, pairwise comparison PP1 vs untreated)","Difference (log2), PP1 vs untreated [2, 4]",Molecule,"Difference (log2), untreated vs GFP ([1]; log2 difference, pairwise comparison untreated vs GFP)","Difference (log2), untreated vs GFP [1, 3]"
1.6514,,"VAPA (protein, UniProt Q9P0L0 2-249, looked up) Vesicle-associated membrane …: ASASGAMAKHEQILVLDPPTDLKFKGPFTDVVTTNLKLRNPSDRKVCFKVKTTAPRRYCVRPNSGIIDPGSTVTVSVMLQPFDYDPNEKSKHKFMVQTIFAPPNTSDMEAVWKEAKPDELMDSKLRCVFEMPNENDKLNDMEPSKAVPLNASKQDGPMPKPHSVSLNDTETRKLMEECKRLQGEMMKLSEENRHLRDEGLRLRKVAHSDKPGSTSTASFRDNVTSPLPSLLVVIAAIFIGFFLGKFIL",-1.034,
,-0.6713 log2,"DCD (protein, UniProt P81605 20-110, looked up) Dermcidin: YDPEAASAPGSGNPCHEASAAQKENAGEDPGLARQAPKPRKQRSSLLEKGLDGAKKAVGGLGKLGKDAVEDLESVGKGAVHDVKDVLDSVL",,-1.7359 log2
,-0.5492 log2,"DNTTIP2 (protein, UniProt Q5QJE6 1-756, looked up) Deoxynucleotidyltransferase …: MVVTRSARAKASIQAASAESSGQKSFAANGIQAHPESSTGSDARTTAESQTTGKQSLIPRTPKARKRKSRTTGSLPKGTEPSTDGETSEAESNYSVSEHHDTILRVTRRRQILIACSPVSSVRKKPKVTPTKESYTEEIVSEAESHVSGISRIVLPTEKTTGARRSKAKSLTDPSQESHTEAISDAETSSSDISFSGIATRRTRSMQRKLKAQTEKKDSKIVPGNEKQIVGTPVNSEDSDTRQTSHLQARSLSEINKPNFYNNDFDDDFSHRSSENILTVHEQANVESLKETKQNCKDLDEDANGITDEGKEINEKSSQLKNLSELQDTSLQQLVSQRHSTPQNKNAVSVHSNLNSEAVMKSLTQTFATVEVGRWNNNKKSPIKASDLTKFGDCGGSDDEEESTVISVSEDMNSEGNVDFECDTKLYTSAPNTSQGKDNSVLLVLSSDESQQSENSENEEDTLCFVENSGQRESLSGDTGSLSCDNALFVIDTTPGMSADKNFYLEEEDKASEVAIEEEKEEEEDEKSEEDSSDHDENEDEFSDEEDFLNSTKAKLLKLTSSSIDPGLSIKQLGGLYINFNADKLQSNKRTLTQIKEKKKNELLQKAVITPDFEKNHCVPPYSESKYQLQKKRRKERQKTAGDGWFGMKAPEMTNELKNDLKALKMRASMDPKRFYKKNDRDGFPKYFQIGTIVDNPADFYHSRIPKKQRKRTIVEELLADSEFRRYNRRKYSEIMAEKAANAAGKKFRKKKKFRN",,2.447 log2
,-0.69 log2,"HNRNPC (protein, UniProt P07910 2-306, looked up) Heterogeneous nuclear …: ASNVTNKTDPRSMNSRVFIGNLNTLVVKKSDVEAIFSKYGKIVGCSVHKGFAFVQYVNERNARAAVAGEDGRMIAGQVLDINLAAEPKVNRGKAGVKRSAAEMYGSVTEHPSPSPLLSSSFDLDYDFQRDYYDRMYSYPARVPPPPPIARAVVPSKRQRVSGNTSRRGKSGFNSKSGQRGSSKSGKLKGDDLQAIKKELTQIKQKVDSLLENLEKIEKEQSKQAVEMKNDKSEEEQSSSSVKKDETNVKMESEGGADDSAEEGDLLDDDDNEDRGDDQLELIKDDEKEAEEGEDDRDSANGEDDS",,1.297 log2
,-0.6423 log2,"BRIX1 (protein, UniProt Q8TDN6 1-353, looked up) Ribosome biogenesis protein …: MAATKRKRRGGFAVQAKKPKRNEIDAEPPAKRHATAEEVEEEERDRIPGPVCKGKWKNKERILIFSSRGINFRTRHLMQDLRMLMPHSKADTKMDRKDKLFVINEVCEMKNCNKCIYFEAKKKQDLYMWLSNSPHGPSAKFLVQNIHTLAELKMTGNCLKGSRPLLSFDPAFDELPHYALLKELLIQIFSTPRYHPKSQPFVDHVFTFTILDNRIWFRNFQIIEEDAALVEIGPRFVLNLIKIFQGSFGGPTLYENPHYQSPNMHRRVIRSITAAKYREKQQVKDVQKLRKKEPKTLLPHDPTADVFVTPAEEKPIEIQWVKPEPKVDLKARKKRIYKRQRKMKQRMDSGKTK",,1.65 log2
,-0.5793 log2,"MAP4 (protein, UniProt P27816 2-1152, looked up) Microtubule-associated …: ADLSLADALTEPSPDIEGEIKRDFIATLEAEAFDDVVGETVGKTDYIPLLDVDEKTGNSESKKKPCSETSQIEDTPSSKPTLLANGGHGVEGSDTTGSPTEFLEEKMAYQEYPNSQNWPEDTNFCFQPEQVVDPIQTDPFKMYHDDDLADLVFPSSATADTSIFAGQNDPLKDSYGMSPCNTAVVPQGWSVEALNSPHSESFVSPEAVAEPPQPTAVPLELAKEIEMASEERPPAQALEIMMGLKTTDMAPSKETEMALAKDMALATKTEVALAKDMESPTKLDVTLAKDMQPSMESDMALVKDMELPTEKEVALVKDVRWPTETDVSSAKNVVLPTETEVAPAKDVTLLKETERASPIKMDLAPSKDMGPPKENKKETERASPIKMDLAPSKDMGPPKENKIVPAKDLVLLSEIEVAQANDIISSTEISSAEKVALSSETEVALARDMTLPPETNVILTKDKALPLEAEVAPVKDMAQLPETEIAPAKDVAPSTVKEVGLLKDMSPLSETEMALGKDVTPPPETEVVLIKNVCLPPEMEVALTEDQVPALKTEAPLAKDGVLTLANNVTPAKDVPPLSETEATPVPIKDMEIAQTQKGISEDSHLESLQDVGQSAAPTFMISPETVTGTGKKCSLPAEEDSVLEKLGERKPCNSQPSELSSETSGIARPEEGRPVVSGTGNDITTPPNKELPPSPEKKTKPLATTQPAKTSTSKAKTQPTSLPKQPAPTTIGGLNKKPMSLASGLVPAAPPKRPAVASARPSILPSKDVKPKPIADAKAPEKRASPSKPASAPASRSGSKSTQTVAKTTTAAAVASTGPSSRSPSTLLPKKPTAIKTEGKPAEVKKMTAKSVPADLSRPKSTSTSSMKKTTTLSGTAPAAGVVPSRVKATPMPSRPSTTPFIDKKPTSAKPSSTTPRLSRLATNTSAPDLKNVRSKVGSTENIKHQPGGGRAKVEKKTEAAATTRKPESNAVTKTAGPIASAQKQPAGKVQIVSKKVSYSHIQSKCGSKDNIKHVPGGGNVQIQNKKVDISKVSSKCGSKANIKHKPGGGDVKIESQKLNFKEKAQAKVGSLDNVGHLPAGGAVKTEGGGSEAPLCPGPPAGEEPAISEAAPEAGAPTSASGLNGHPTLSGGGDQREAQTLDSQIQETSI",,0.9373 log2
,-0.5557 log2,"DHX15 (protein, UniProt O43143 1-795, looked up) ATP-dependent RNA helicase …: MSKRHRLDLGEDYPSGKKRAGTDGKDRDRDRDREDRSKDRDRERDRGDREREREKEKEKELRASTNAMLISAGLPPLKASHSAHSTHSAHSTHSTHSAHSTHAGHAGHTSLPQCINPFTNLPHTPRYYDILKKRLQLPVWEYKDRFTDILVRHQSFVLVGETGSGKTTQIPQWCVEYMRSLPGPKRGVACTQPRRVAAMSVAQRVADEMDVMLGQEVGYSIRFEDCSSAKTILKYMTDGMLLREAMNDPLLERYGVIILDEAHERTLATDILMGVLKEVVRQRSDLKVIVMSATLDAGKFQIYFDNCPLLTIPGRTHPVEIFYTPEPERDYLEAAIRTVIQIHMCEEEEGDLLLFLTGQEEIDEACKRIKREVDDLGPEVGDIKIIPLYSTLPPQQQQRIFEPPPPKKQNGAIGRKVVVSTNIAETSLTIDGVVFVIDPGFAKQKVYNPRIRVESLLVTAISKASAQQRAGRAGRTRPGKCFRLYTEKAYKTEMQDNTYPEILRSNLGSVVLQLKKLGIDDLVHFDFMDPPAPETLMRALELLNYLAALNDDGDLTELGSMMAEFPLDPQLAKMVIASCDYNCSNEVLSITAMLSVPQCFVRPTEAKKAADEAKMRFAHIDGDHLTLLNVYHAFKQNHESVQWCYDNFINYRSLMSADNVRQQLSRIMDRFNLPRRSTDFTSRDYYINIRKALVTGYFMQVAHLERTGHYLTVKDNQVVQLHPSTVLDHKPEWVLYNEFVLTTKNYIRTCTDIKPEWLVKIAPQYYDMSNFPQCEAKRQLDRIIAKLQSKEYSQY",,1.871 log2
,-0.6831 log2,"SRPRB (protein, UniProt Q9Y5M8 1-271, looked up) Signal recognition particle …: MASADSRRVADGGGAGGTFQPYLDTLRQELQQTDPTLLSVVVAVLAVLLTLVFWKLIRSRRSSQRAVLLVGLCDSGKTLLFVRLLTGLYRDTQTSITDSCAVYRVNNNRGNSLTLIDLPGHESLRLQFLERFKSSARAIVFVVDSAAFQREVKDVAEFLYQVLIDSMGLKNTPSFLIACNKQDIAMAKSAKLIQQQLEKELNTLRVTRSAAPSTLDSSSTAPAQLGKKGKEFEFSQLPLKVEFLECSAKGGRGDVGSADIQDLEKWLAKIA",,1.397 log2
,-0.5886 log2,"SPATS2 (protein, UniProt Q86XZ4 1-545, looked up) Spermatogenesis-associated …: MSRKQNQKDSSGFIFDLQSNTVLAQGGAFENMKEKINAVRAIVPNKSNNEIILVLQHFDNCVDKTVQAFMEGSASEVLKEWTVTGKKKNKKKKNKPKPAAEPSNGIPDSSKSVSIQEEQSAPSSEKGGMNGYHVNGAINDTESVDSLSEGLETLSIDARELEDPESAMLDTLDRTGSMLQNGVSDFETKSLTMHSIHNSQQPRNAAKSLSRPTTETQFSNMGMEDVPLATSKKLSSNIEKSVKDLQRCTVSLARYRVVVKEEMDASIKKMKQAFAELESCLMDREVALLAEMDKVKAEAMEILLSRQKKAELLKKMTHVAVQMSEQQLVELRADIKHFVSERKYDEDLGRVARFTCDVETLKKSIDSFGQVSHPKNSYSTRSRCSSVTSVSLSSPSDASAASSSTCASPPSLTSANKKNFAPGETPAAIANSSGQPYQPLREVLPGNRRGGQGYRPQGQKSNDPMNQGRHDSMGRYRNSSWYSSGSRYQSAPSQAPGNTIERGQTHSAGTNGTGVSMEPSPPTPSFKKGLPQRKPRTSQTEAVNS",,1.275 log2
,-0.548 log2,"FUS (protein, UniProt P35637 1-526, looked up) RNA-binding protein FUS: MASNDYTQQATQSYGAYPTQPGQGYSQQSSQPYGQQSYSGYSQSTDTSGYGQSSYSSYGQSQNTGYGTQSTPQGYGSTGGYGSSQSSQSSYGQQSSYPGYGQQPAPSSTSGSYGSSSQSSSYGQPQSGSYSQQPSYGGQQQSYGQQQSYNPPQGYGQQNQYNSSSGGGGGGGGGGNYGQDQSSMSSGGGSGGGYGNQDQSGGGGSGGYGQQDRGGRGRGGSGGGGGGGGGGYNRSSGGYEPRGRGGGRGGRGGMGGSDRGGFNKFGGPRDQGSRHDSEQDNSDNNTIFVQGLGENVTIESVADYFKQIGIIKTNKKTGQPMINLYTDRETGKLKGEATVSFDDPPSAKAAIDWFDGKEFSGNPIKVSFATRRADFNRGGGNGRGGRGRGGPMGRGGYGGGGSGGGGRGGFPSGGGGGGGQQRAGDWKCPNPTCENMNFSWRNECNQCKAPKPDGPGGGPGGSHMGGNYGDDRRGGRGGYDRGGYRGRGGDRGGFRGGRGGGDRGGFGPGKMDSRGEHRQDRRERPY",,-0.2742 log2
